This assay has as its target T1, pro-caspase-8 (Homo sapiens, UniProt P62942+Q14790).
T1 construct: in vitro translated, ^35S-labeled Fkp3-Casp8(206); made in house; host or cells: cell-free in vitro transcription/translation, TNT Reticulocyte Lysate System (Promega)
Nature of the assay: Cell-free processing of pro-caspase-8 (in vitro translated, 35S-labeled, SDS-PAGE autoradiography). Type of assay: biochemical. The conditions noted are these: AP1510 100 nM; FK506 100 nM; Z-DEVD 10 μM. On the procedure:
In vitro transcription and translation of the indicated constructs with ^35S-labeled methionine were carried out with the TNT Reticulocyte Lysate System (Promega; Madison Wis.). The reaction mixture contained 1 μl of the in vitro translation product and the indicated drugs dissolved in 3 μl of CED3 reaction buffer (Xue et al., Genes Devel. 10:1073-1083 (1996), which is incorporated herein by reference). Final drug concentrations of 100 nM of AP1510 or FK506 and 10 μM of Z-Asp-Glu-Val-Asp(SEQ ID NO:1)(Z-DEVD; Enzyme System Products; Calif.) were used. The reaction mixture was incubated in 30° C. for 4 hr, then the reaction stopped by the addition of SDS sample buffer. Reaction products were visualized by SDS-PAGE and autoradiography.

T1 sequence (P62942+Q14790 fused): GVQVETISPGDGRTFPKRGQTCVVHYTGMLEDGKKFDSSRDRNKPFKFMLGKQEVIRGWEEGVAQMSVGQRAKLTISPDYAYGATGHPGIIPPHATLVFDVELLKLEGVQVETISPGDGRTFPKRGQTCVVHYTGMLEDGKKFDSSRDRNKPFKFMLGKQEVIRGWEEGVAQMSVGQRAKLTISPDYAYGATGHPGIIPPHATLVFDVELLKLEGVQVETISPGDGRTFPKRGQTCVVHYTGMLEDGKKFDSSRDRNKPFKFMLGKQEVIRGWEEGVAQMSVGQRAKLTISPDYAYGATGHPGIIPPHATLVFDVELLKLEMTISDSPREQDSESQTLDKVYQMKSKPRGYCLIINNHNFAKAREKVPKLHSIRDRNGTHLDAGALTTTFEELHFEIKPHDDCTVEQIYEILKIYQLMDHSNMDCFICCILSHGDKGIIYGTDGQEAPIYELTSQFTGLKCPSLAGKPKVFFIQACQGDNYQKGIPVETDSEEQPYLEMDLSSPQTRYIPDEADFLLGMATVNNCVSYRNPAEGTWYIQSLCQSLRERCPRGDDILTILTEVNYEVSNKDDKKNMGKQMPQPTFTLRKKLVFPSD

On to “Z-Asp-Glu-Val-Asp (ZDEVD; N-terminal benzyloxycarbonyl (Z); enzyme used in cell-free processing of Pro-Caspase-8) [z-DEVD]”, for which the “effect on AP1510-initiated cell-free processing of Fkp3-Casp8(206)” value was “inhibited”.

The values are drawn from patent US6916917B1, “Chimeric pro-caspases and methods of using same” (California Institute of Technology, priority 1998, dated 2005).
